Values of other authors in PMC6815250.

Target: RgpB pro-fragment pro-fragment (Porphyromonas gingivalis) (UniProt P95493)

RgpB, sequence (P95493 230-736): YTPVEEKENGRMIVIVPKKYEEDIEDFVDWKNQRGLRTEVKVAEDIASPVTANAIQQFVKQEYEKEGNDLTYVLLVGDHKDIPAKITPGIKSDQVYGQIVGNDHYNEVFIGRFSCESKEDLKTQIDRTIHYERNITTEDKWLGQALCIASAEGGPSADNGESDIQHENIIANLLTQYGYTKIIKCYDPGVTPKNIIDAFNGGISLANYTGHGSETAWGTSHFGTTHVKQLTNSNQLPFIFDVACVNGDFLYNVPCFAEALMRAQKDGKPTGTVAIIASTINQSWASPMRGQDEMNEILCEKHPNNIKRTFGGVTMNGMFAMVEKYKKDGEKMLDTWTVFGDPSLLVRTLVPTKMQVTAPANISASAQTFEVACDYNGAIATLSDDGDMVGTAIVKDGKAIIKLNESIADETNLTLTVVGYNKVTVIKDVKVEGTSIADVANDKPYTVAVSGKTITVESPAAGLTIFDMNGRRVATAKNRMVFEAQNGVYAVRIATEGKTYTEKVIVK

Q: For RgpB (from UniProt P95493), which Ki is on record?
A: 6.3 nM
